Source: US6670136 (TRUSTEES OF COLUMBIA UNIVERSITY IN THE CITY OF NEW YORK, dated 2003)

What was measured:
[1] = target: T1, RAGE on bovine aortic endothelial cells (BAEC RAGE) (bovine, UniProt Q28173 23-416); test: radioligand binding: 125I-EN-RAGE on confluent bovine aortic endothelial cells
T1 construct: whole, on cells; The target is endogenous RAGE on confluent BAEC monolayers; also called BAECs; endothelial (EC) RAGE
T1 sequence (looked up): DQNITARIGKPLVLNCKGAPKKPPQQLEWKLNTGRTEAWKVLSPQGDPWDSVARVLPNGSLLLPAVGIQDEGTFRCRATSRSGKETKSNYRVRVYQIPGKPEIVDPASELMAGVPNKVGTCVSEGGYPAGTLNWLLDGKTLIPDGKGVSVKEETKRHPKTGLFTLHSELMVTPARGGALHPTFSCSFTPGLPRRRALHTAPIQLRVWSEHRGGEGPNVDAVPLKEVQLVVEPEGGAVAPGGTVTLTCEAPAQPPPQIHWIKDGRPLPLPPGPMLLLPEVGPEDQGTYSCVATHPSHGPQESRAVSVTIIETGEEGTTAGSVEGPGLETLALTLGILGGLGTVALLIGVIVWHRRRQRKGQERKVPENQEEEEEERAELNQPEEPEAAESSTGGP
Experimental: (§1) Where indicated, radiolabelled EN-RAGE (100 nM) was incubated with the indicated amount of excess sRAGE two hours prior to binding assay, or wells were preincubated for two hours with the indicated concentration of rabbit nonimmune IgG, or polyclonal monospecific rabbit anti-EN-RAGE IgG or anti-RAGE: IgG prior to binding assay and results reported as % maximal specific binding ±SD of the mean. These experiments were performed at least five times with analogous results.
(§2) Radioligand binding assays were performed in 96-well dishes to which had been adsorbed either purified human RAGE (5 μg/well) or bovine aortic endothelial cells. In the former case, after adsorption of human soluble RAGE to the plastic dish in carbonate/bicarbonate buffer (pH 9.3) overnight, wells were then washed with PBS containing Tween 20 (0.05%). Unoccupied binding sites on the plastic wells were blocked by incubation with PBS containing calcium/magnesium and bovine serum albumin (1%) for two hours at 37° C. After aspiration of the wells, a radioligand binding assay was performed in the presence of the indicated concentration of radiolabelled EN-RAGE ± an 50-fold molar excess of unlabelled EN-RAGE in PBS containing calcium/magnesium and BSA, 0.2%, for 3 hrs at 37° C. […] Solution was then aspirated from the wells and counted in a gamma counter (LKB, Gaithersburg, Md.). […]

[2] = target: T2, human soluble RAGE (sRAGE), prepared from a baculovirus expression system (human, UniProt Q15109 23-342); test: radioligand binding: 125I-EN-RAGE on human sRAGE adsorbed to plastic wells, with or without 50-fold unlabelled EN-RAGE
T2 construct: extracellular domain; Murine sRAGE was used only in the in vivo studies; also called purified RAGE; immobilized RAGE
Experimental: as §1, §2

[3] = target: cellular RAGE on human cells (HUVEC, Molt-4, PBMC, Jurkat) (human, UniProt Q15109 23-404); test: cell-based or functional assay
[4] = target: T1, RAGE on bovine aortic endothelial cells …; test: binding to endothelial cell RAGE in culture wells
Experimental: as §1, §2

[5] = target: T2, human soluble RAGE (sRAGE), prepared …; test: binding to immobilized RAGE in culture wells
Experimental: as §1, with “(Panel C–D) EN-RAGE binds purified RAGE (C) and BAECs (D): In C, human soluble RAGE was immobilized onto the wells of plastic dishes and in D, confluent BAECs were cultured onto tissue culture-treated wells. […] Where” for “Where”
Radioligand binding assays were performed in 96-well dishes to which had been adsorbed either purified human RAGE (5 μg/well) or bovine aortic endothelial cells. In the former case, after adsorption of human soluble RAGE to the plastic dish in carbonate/bicarbonate buffer (pH 9.3) overnight, wells were then washed with PBS containing Tween 20 (0.05%). Unoccupied binding sites on the plastic wells were blocked by incubation with PBS containing calcium/magnesium and bovine serum albumin (1%) for two hours at 37° C. […] Solution was then aspirated from the wells and counted in a gamma counter (LKB, Gaithersburg, Md.).

[6] = target: T3, RAGE on macrophage-like BV2 cells (macrophage (MP) RAGE) (UniProt Q62151 23-402, limits assumed); test: binding to macrophage RAGE in culture wells
T3 construct: whole, on cells; also called BV-2 macrophages
T3 sequence (Q62151 23-402 limits assumed): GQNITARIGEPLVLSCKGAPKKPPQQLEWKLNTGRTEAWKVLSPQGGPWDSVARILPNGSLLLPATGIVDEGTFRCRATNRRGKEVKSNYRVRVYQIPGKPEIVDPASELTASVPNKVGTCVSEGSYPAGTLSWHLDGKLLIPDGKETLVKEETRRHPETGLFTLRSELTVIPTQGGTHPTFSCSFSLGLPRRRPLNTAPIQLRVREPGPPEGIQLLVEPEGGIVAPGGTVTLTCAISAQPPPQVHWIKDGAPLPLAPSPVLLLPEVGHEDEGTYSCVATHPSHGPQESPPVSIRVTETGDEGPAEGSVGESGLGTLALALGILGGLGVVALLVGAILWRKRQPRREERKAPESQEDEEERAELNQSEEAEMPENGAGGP

cellular RAGE on human cells (HUVEC, Molt-4, PBMC, Jurkat), sequence (Q15109 23-404): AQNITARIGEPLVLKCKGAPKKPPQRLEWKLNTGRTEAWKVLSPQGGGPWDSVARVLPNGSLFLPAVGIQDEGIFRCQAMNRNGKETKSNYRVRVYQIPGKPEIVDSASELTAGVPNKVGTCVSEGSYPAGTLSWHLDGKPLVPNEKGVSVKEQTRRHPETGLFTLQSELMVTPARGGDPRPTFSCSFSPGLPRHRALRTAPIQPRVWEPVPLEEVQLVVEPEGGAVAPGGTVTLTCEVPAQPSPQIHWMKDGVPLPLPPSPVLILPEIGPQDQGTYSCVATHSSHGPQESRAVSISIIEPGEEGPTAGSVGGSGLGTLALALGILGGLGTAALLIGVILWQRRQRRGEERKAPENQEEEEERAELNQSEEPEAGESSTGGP
T2 sequence (Q15109 23-342): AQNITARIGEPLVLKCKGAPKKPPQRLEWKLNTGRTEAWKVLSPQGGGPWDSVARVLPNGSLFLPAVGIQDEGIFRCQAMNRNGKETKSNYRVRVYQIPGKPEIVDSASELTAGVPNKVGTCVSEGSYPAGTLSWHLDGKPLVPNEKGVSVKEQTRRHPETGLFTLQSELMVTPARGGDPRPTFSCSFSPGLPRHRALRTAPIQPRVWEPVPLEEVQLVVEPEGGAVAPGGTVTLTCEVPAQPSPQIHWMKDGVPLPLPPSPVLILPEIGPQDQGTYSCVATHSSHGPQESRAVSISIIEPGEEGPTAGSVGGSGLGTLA

Row | Binder | Kd [1] | Kd [2] | adhesion of Molt-4 cells to cultured ECs [3] | expression of cell-surface VCAM-1 on cultured ECs [3] | nuclear NF-kB in HUVEC (EMSA, densitometry) [3] | Kd [4] | Kd [5] | Kd [6] | nuclear translocation of NF-kB in HUVEC (EMSA) [3]
1 | EN-RAGE (Extracellular Novel RAGE binding protein), recombinant bovine, expressed in Sf9 cells (ligand, Recombinant protein made from a bovine lung cDNA in baculovirus/Sf9; In the cell assays it was unlabelled; also called radiolabelled EN-RAGE) TKLEDHLEGIINIFHQYSVRVGHFDTLNKRELKQLITKELPKTLQNTKDQPTIDKIFQDLDADKDGAVSFEEFVVLVSRVLKTAHIDIHK | ~90.3 nM | ~91 nM | 7 fold | 4.3 fold | ~5 fold | ~75 nM | ~75 nM | ~75 nM | 
2 | purified S100B from human brain (Calbiochem-Novabiochem) (ligand, UniProt P04271 2-92, looked up) SELEKAMVALIDVFHQYSGREGDKHKLKKSELKELINNELSHFLEEIKEQEVVDKVMETLDNDGDGECDFQEFMAFVAMVTTACHEFFEHE |  |  |  |  |  |  |  |  | ~13.9 fold
